Measured values: publication PMC11150925

B1: rCsGST-μ1 (Clonorchis sinensis) (protein)
chain: MAPVLGYWKIRGLAQPIRLLLEYVGDSYEEHSYGRCDGEKWQNDKHNLGLELPNLPYYKDGNFSLTQSLAILRYIADKHNMIGNTPVERAKISMIEGGLVDLRAGVSRIAYQETFVCIVSTFCLSHTSQEQLKVPYLQQLPSTLRMWSQFLGNNSYLHGSTPTHLDFMFYEALDVIRYLDPTSVEAFPNLMQFIHRIEALPNIKAFMESDRFIKWPLNGWSAYFGGGDAPPK
B2: rCsGST-σ1 (Clonorchis sinensis) (protein)
chain: MADEHYTLFYFQFRGRAEAIRMILHANGVHFKDERFTMNEWPERRNQIPGSRVPLLQVKKNKTHEVANYVESMAIARMLAKRFHMMGDSEEEYYRVERMIGQCADLDKEFYTAFFAAADQKEEMLKKSMREAVPKMLDLISKSISESGGKFAAGDKVTLGDICLLTSMDHVRKHDPEFLGKHYPKLLVLEQEVLKAKPKLAEYIRTRPETPL
B3: rCsPGDS1 (Clonorchis sinensis) (protein)
chain: MSQYKLTYFNLRGRAEPIRMVLIISGTPFEDCRIEVSDWPSKKSTIPGGKLPILEVTSPCGKKTLMTESMATARYLAKQHNLMGATDEDYYKIEKTIGECGDLHDLVYKIARAPDAEKPKLIEELKKLENAPRLLNLMSETLKSNPSGFVAGEKVSLGDIALLCTLDQFESVYPGFLKENYPIFANHREHIMELQPKLAEHIKTRPTTIV
B4: rCsGST-σ3 (Clonorchis sinensis) (protein)
chain: MSGEKYKLYYFPFRARGEVIRMVLHAAGVPFDDERIPMDDWPKRKSEIPGGRMPVLQVIDPDKPDTPKNFVEGMAIARMLAKRFDLMDDTEEGYYNTERMIGECEDVFKEFRSVFLSPADKKEELLKEAMETSIPKQLDLISKSLSESAGKFVAGCKVTLGDLCLLACLDHVDKSDPEFLKDKYPKLLEWREEVLKEKPKLADYIKSRPDTPF

substrate: [H][C@]12C[C@]([H])(OO1)[C@H](C/C=C\CCCC(=O)O)[C@H]2/C=C/[C@@H](O)CCCCC; experiment: purified protein; settings: PGD2 synthase reaction; 2 mM GSH fixed (saturating); PGH2 0.08-40 μM

Protein	Km [µM]	kcat [s⁻¹]	kcat/Km [M⁻¹ s⁻¹]
B1	4.9	12.5	2.6e+06
B2	92.1	451	4.9e+06
B3	21.0	90.6	4.3e+06
B4	30.2	90.7	3e+06
